From paper PMC11101478 (2024) come the findings set out here.

Bounds are passed on as bounds.

What all share (assay): BLI
On the technique in general: BLI is a label-free optical method that tracks binding on a fibre tip over time.

One assay deals with E. coli LamB (E. coli, UniProt P02943 26-446).
For the next assay, the target named is E. coli LamB A384S (E. coli, UniProt P02943 26-446, A384S).
The target of assay [1] is Shigella sonnei 3070 LamB (Shigella sonnei 3070, UniProt Q3YUU9 26-446).

B1: gpJ713 (C-terminal truncation of bacteriophage lambda gpJ, starting from residue 713) (domain or fragment)
chain: APAAPSRIELTPGYFQITATPHLAVYDPTVQFEFWFSEKQIADIRQVETSTRYLGTALYWIAASINIKPGHDYYFYIRSVNTVGKSAFVEAVGRASDDAEGYLDFFKGKITESHLGKELLEKVELTEDNASRLEEFSKEWKDASDKWNAMWAVKIEQTKDGKHYVAGIGLSMEDTEEGKLSQFLVAANRIAFIDPANGNETPMFVAQGNQIFMNDVFLKRLTAPTITSGGNPPAFSLTPDGKLTAKNADISGSVNANSGTLSNVTIAENCTINGTLRAEKIVGDIVKAASAAFPRQRESSVDWPSGTRTVTVTDDHPFDRQIVVLPLTFRGSKRTVSGRTTYSMCYLKVLMNGAVIYDGAANEAVQVFSRIVDMPAGRGNVILTFTLTSTRHSADIPPYTFASDVQVMVIKKQALGISVV
The term koff denotes the first-order rate constant of dissociation. A higher koff goes with a short-lived complex. In the case of B1, the values for the koff (in the assay with E. coli LamB; in the assay with E. coli LamB A384S; in assay [1]) were 0.00427 s⁻¹, < 1e-07 s⁻¹ and < 1e-07 s⁻¹, respectively.
